Laboratory results published in patent US20250281611A1 (BIOSCEPTRE AUST, published 2025).
Values belong to the binder of their own block, whether it stands above or below them.

What was measured:
CD19 [1] = molecular target: T1, CD19 (UniProt P15391 20-556, limits assumed); assay: flow cytometry, JeKo-1 cells, BIL03s-AF647 detection, MFI over no-bridge control
T1 construct: whole, on cells; also called CD19 on JeKo-1
T1 sequence (looked up): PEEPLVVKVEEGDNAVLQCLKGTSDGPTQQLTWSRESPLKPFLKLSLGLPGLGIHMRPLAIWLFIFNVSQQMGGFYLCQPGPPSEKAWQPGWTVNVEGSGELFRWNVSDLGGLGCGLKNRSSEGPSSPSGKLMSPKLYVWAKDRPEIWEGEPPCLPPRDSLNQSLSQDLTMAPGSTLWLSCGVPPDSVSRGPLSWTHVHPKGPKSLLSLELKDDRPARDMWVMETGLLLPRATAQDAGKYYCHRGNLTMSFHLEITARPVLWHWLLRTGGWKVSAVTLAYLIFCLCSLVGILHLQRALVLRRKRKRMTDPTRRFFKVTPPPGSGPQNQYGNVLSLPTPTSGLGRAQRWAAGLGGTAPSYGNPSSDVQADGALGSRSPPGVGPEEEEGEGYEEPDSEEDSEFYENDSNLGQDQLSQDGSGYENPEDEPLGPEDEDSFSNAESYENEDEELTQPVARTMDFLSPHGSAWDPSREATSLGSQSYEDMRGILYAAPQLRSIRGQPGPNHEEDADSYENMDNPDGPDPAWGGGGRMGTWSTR
Experimental: (§1) JeKo-1 cells were incubated with different CD19 BRiDGE variants at saturating concentrations. […] The MFI intensity correlates with the number of secondary bound antibodies bound to the CD19 BRiDGE variants that are only detected if they are bound to the JeKo-1 cells. MFI: median fluorescence intensity. BLitz: Bio-Layer interferometry (BLI) technology using HIS-tag identification tips. […] The higher the MFIR, the stronger the binding.

nfP2X7 CAR 1 [2] = molecular target: T2, nfP2X7 CAR 1; assay: flow cytometry, nfP2X7 CAR 1 T cells (EGFR+ gate), anti-His-FITC detection
T2 construct: CAR-positive cells gated by the co-expressed EGFR marker; also called nfP2X7 targeted CAR; nfP2X7 CAR on EGFR+ T cells
Experimental: (§2) nfP2X₇ CAR T cells were incubated with different BRiDGE variants at saturating concentrations. […] The MFI intensity correlates with the number of secondary bound antibodies bound to the BRiDGEs that are only detected if they are bound to the CAR T cells. EGFR was used as a marker gene to detect the CAR expression. Thus, the EGFR+ T cell population was defined as the CAR expressing cells and the EGFR− T cell population was defined as the CAR negative subset. MFI: median fluorescence intensity. EGFR: epidermal growth factor receptor. BLItz: Bio-Layer interferometry (BLI) technology using HIS-tag identification tips. HIS-tag MFI Ratio: relative index that is calculated by the testing condition MFI divided by the control MFI, which corresponds to the MFI measured on EGFR+ T cells (defined as CAR positive cells) divided by the MFI measured on the EGFR− T cells (defined as CAR negative cells). […] The higher the MFIR, the stronger the binding.

nfP2X7 CAR 1 [3] = molecular target: T2, nfP2X7 CAR 1; assay: flow cytometry, anti-His-FITC, MFI on EGFR+ (CAR+) T cells over background 0.44
Experimental: as §2

CD19 [4] = molecular target: T1, CD19; assay: flow cytometry, JeKo-1 cells, bridge at saturating conc., BIL03s-AF647 detection
Experimental: as §1

CD19 [5] = molecular target: T1, CD19; assay: flow cytometry, JeKo-1 cells, anti-His-FITC detection, MFI over no-bridge control
Experimental: as §1

nfP2X7 CAR 1 [6] = molecular target: T2, nfP2X7 CAR 1; assay: flow cytometry, anti-His-FITC, MFI on EGFR+ (CAR+) over EGFR- (CAR-) T cells
Experimental: as §2

CD19 [7] = molecular target: T1, CD19; assay: flow cytometry, JeKo-1 cells, bridge at saturating conc., anti-His-FITC detection
Experimental: as §1

nfP2X7 CAR 1 [8] = molecular target: T3, nfP2X7 CAR 1; assay: flow cytometry, CAR T cells, anti-His-FITC, EGFR+ over EGFR- cells
T3 construct: Expressed on T cells with truncated EGFR as marker gene; also called anti-nfP2X7 receptor CAR 1; nfP2X7 targeted CAR on EGFR+ T cells
Procedure, shortened: (§3)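 CAR T cells incubated with BRiDGE variants at saturating concentrations; bound BRiDGE detected with anti-His-FITC by flow cytometry. EGFR marks CAR expression. Value is median fluorescence intensity on EGFR+ (CAR+) cells divided by that on EGFR− (CAR−) cells.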

CD33 [9] = molecular target: T4, CD33 (UniProt P20138 18-364, limits assumed); assay: flow cytometry, MOLM-13 cells, anti-His-FITC detection
T4 construct: whole, on cells; also called Siglec-3; CD33 on MOLM-13 cells
T4 sequence (P20138 18-364 limits assumed): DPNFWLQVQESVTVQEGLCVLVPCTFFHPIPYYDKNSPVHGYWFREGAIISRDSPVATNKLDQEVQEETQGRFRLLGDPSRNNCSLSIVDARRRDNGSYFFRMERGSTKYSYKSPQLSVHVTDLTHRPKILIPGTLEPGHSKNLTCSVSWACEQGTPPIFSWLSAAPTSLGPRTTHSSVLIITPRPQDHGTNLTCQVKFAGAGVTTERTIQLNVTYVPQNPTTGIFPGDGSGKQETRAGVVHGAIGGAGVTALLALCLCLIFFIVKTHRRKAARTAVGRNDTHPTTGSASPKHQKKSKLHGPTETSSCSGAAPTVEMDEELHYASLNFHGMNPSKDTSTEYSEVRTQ
Experimental: as §1, with “MOLM-13” for “JeKo-1”, “CD33 BRIDGE” for “CD19 BRiDGE”, “secondary” for “secondary bound”, “BLItz:” for “BLitz:”

nfP2X7 CAR 1 [10] = molecular target: T3, nfP2X7 CAR 1; assay: flow cytometry, nfP2X7 CAR T cells (EGFR+), anti-His-FITC detection
CD33 [11] = molecular target: T4, CD33; assay: flow cytometry, MOLM-13 cells, anti-His-FITC detection, ratio to no bridge
Experimental: as §1, with “MOLM-13” for “JeKo-1”, “CD33 BRIDGE” for “CD19 BRiDGE”, “secondary” for “secondary bound”, “BLItz:” for “BLitz:”

nfP2X7 CAR 1 [12] = molecular target: T3, nfP2X7 CAR 1; assay: flow cytometry, CAR T cells, anti-His-FITC, EGFR+ MFI over background 0.4
Procedure, shortened: as §3

B1: CD19 BRIDGE variant B1 (Fab, V domains shown)
VH: EVQLVESGGGLVKPGGSLKLSCAASGYTFTSYVMHWVRQAPGKGLEWIGYINPYNDGTKYNEKFQGRVTISSDKSISTAYMELSSLRSEDTAMYYCARGTYYYGTRVFDYWGQGTLVTVSS
VL: DIVMTQSPATLSLSPGERATLSCRSSKSLQNVNGNTYLYWFQQKPGQSPQLLIYRMSNLNSGVPDRFSGSGSGTEFTLTISSLEPEDFAVYYCMQHLEYPITFGAGTKLEIKR
MFIR BIL03 AF647 (CD19 [1]): 6.93
MFI HisTag FITC in EGFR+ Population (nfP2X7 CAR 1 [2]): 2.1
HisTag MFI Ratio (background 0.44) (nfP2X7 CAR 1 [3]): 4.8
MFI Bil03 AF647 (CD19 [4]): 3.19
MFIR HisTag FITC (CD19 [5]): 4.17
HisTag MFI Ratio of EGFR+/EGFR- (nfP2X7 CAR 1 [6]): 4
MFI HisTag FITC (CD19 [7]): 3.21

B2: CD19 BRIDGE variant B2 (Fab, V domains shown)
VH: B1 VH
VL: B1 VL
MFIR BIL03 AF647 (CD19 [1]): 9.07
MFI HisTag FITC in EGFR+ Population (nfP2X7 CAR 1 [2]): 2.07
HisTag MFI Ratio (background 0.44) (nfP2X7 CAR 1 [3]): 4.7
MFI Bil03 AF647 (CD19 [4]): 4.17
MFIR HisTag FITC (CD19 [5]): 4.51
HisTag MFI Ratio of EGFR+/EGFR- (nfP2X7 CAR 1 [6]): 4.1
MFI HisTag FITC (CD19 [7]): 3.47

B3: CD19 BRIDGE variant B3 (Fab, V domains shown)
VH: B1 VH
VL: B1 VL
MFIR BIL03 AF647 (CD19 [1]): 11.8
MFI HisTag FITC in EGFR+ Population (nfP2X7 CAR 1 [2]): 2.05
HisTag MFI Ratio (background 0.44) (nfP2X7 CAR 1 [3]): 4.7
MFI Bil03 AF647 (CD19 [4]): 5.43
MFIR HisTag FITC (CD19 [5]): 4.71
HisTag MFI Ratio of EGFR+/EGFR- (nfP2X7 CAR 1 [6]): 4.1
MFI HisTag FITC (CD19 [7]): 3.63

Next, values leading:

MFIR BIL03 AF647 (CD19 [1]): 16.5
MFI HisTag FITC in EGFR+ Population (nfP2X7 CAR 1 [2]): 2.22
HisTag MFI Ratio (background 0.44) (nfP2X7 CAR 1 [3]): 5
MFI Bil03 AF647 (CD19 [4]): 7.57
MFIR HisTag FITC (CD19 [5]): 4.3
HisTag MFI Ratio of EGFR+/EGFR- (nfP2X7 CAR 1 [6]): 4
MFI HisTag FITC (CD19 [7]): 3.31
B4: CD19 BRIDGE variant B7 (Fab, V domains shown)
VH: B1 VH
VL: B1 VL

HisTag MFI Ratio of EGFR+/EGFR- (nfP2X7 CAR 1 [8]): 4
MFI HisTag FITC (CD33 [9]): 7.12
MFI HisTag FITC in EGFR+ Population (nfP2X7 CAR 1 [10]): 1.58
MFIR HisTag FITC (CD33 [11]): 10.6
HisTag MFI Ratio (background 0.4) (nfP2X7 CAR 1 [12]): 4
B5: CD33 PURIFIED BRIDGE (Fab, V domains shown)
VH: QVQLVQSGAEVKKPGSSVKVSCKASGYTFTDYNMHWVRQAPGQGLEWIGYIYPYNGGTGYNQKFKSKATITADESTNTAYMELSSLRSEDTAVYYCARGRPAMDYWGQGTLVTVSS
VL: DIQMTQSPSSLSASVGDRVTITCRASESVDNYGISFMNWFQQKPGKAPKLLIYAASNQGSGVPSRFSGSGSGTDFTLTISSLQPDDFATYYCQQSKEVPWTFGQGTKVEIKR
notes: also called old variant; original E200 CD33 Fab bridging molecule derived from lintuzumab
